The numbers were not newly measured in US20190351024A1, “IMMUNOCYTOKINES WITH PROGRESSIVE ACTIVATION MECHANISM” (PHILOGEN S.p.A., priority 2016, published 2019), which cites them from elsewhere.

The conditions of the data set: past clinical trials; cited from earlier work.

Take TNF-α: the maximum tolerated dose is listed as 150-300 μg/m^2/day.
